For assay [1], the target named is filamentous actin (F-actin), rabbit skeletal muscle (rabbit) (UniProt P68135).
The target of assay [2] is filamentous actin (F-actin), rabbit skeletal muscle (UniProt P68135). The assay can be described thus: inhibition of barbed end elongation from spectrin-actin seeds (pyrenyl-actin), fitted binding curve with 1:1 stoichiometry. To be noted: 2 µM G-actin (10% pyrenyl-labeled).
Assay [3] concerns the target filamentous actin (F-actin), rabbit skeletal muscle (rabbit) (UniProt P68135). This is another data set of the same source.
Assay [4] shares this target. The source holds these as a separate data set.
Assay [5] deals with GST-fused Eps8(648–821) wild type (mouse) (UniProt Q08509). The assay is described as follows: SEC + other: glycerol gradient sedimentation; Superdex200 10/30 and 10%–40% glycerol gradients (100 mM Tris-HCl pH 8, 500 mM NaCl, 1 mM dithiothreitol, 1 mM EDTA) of purified GST-Eps8(648–821) proteins.
In assay [6] the target is AEDANS-labeled monomeric actin (rabbit) (UniProt P68135). The assay is described as follows: other fluorescence titration; competition: 1.5 µM AEDANS-labeled actin, increasing Thymosin β4 with 0, 15 or 30 µM Eps8(648–821) or 0, 10 or 15 µM H1–H2; 0.1 M KCl and 1 mM MgCl2 (high salt); apparent constants.

pKd: −log10 of the molar value.

In general, stoichiometry N refers to the number of molecules, sites or subunits per partner or assembly. Broadly, the pKd is the Kd on a negative log10 scale, so that one unit is a factor of ten.

Consider “C-terminal fragment of Ce-EPS-8A (aa 714–917) fused to GST, wild type (domain or fragment)”, for which the Kcap of barbed end inhibition: elongation from spectrin-actin seeds with 2 µM G-actin (10% pyrenyl-labeled) in assay [1] was found to be 108 nM. For the substance “C-terminal fragment of Ce-EPS-8A (aa 714–917) fused to GST, wild type Δbund”, in assay [2], the other: Kcap came out at 205 nM. Consider “C-terminal fragment of Ce-EPS-8A (aa 714–917) fused to GST, wild type Δcap”, for which, in assay [2], the other: Kcap came to 980 nM. In assay [2], “C-terminal fragment of Ce-EPS-8A (aa 714–917) fused to GST, wild type ΔcapΔbund” had an other: Kcap greater than 4000 nM.

In the case of “Eps8(648–821)-V689D-L693D (Eps8-Δcap) (from UniProt Q08509 648-821) (domain or fragment)”, the Kcap: barbed end elongation from spectrin-actin seeds in assay [3] stood at 700 nM. In assay [4], “GST-fused Eps8(648–821) wild type (from UniProt Q08509 648-821) (domain or fragment)” displayed a Kcap: barbed end elongation, wild type of Figure 6C of 4 nM and a Kcap: barbed end elongation, wild type of Figure 6D of 16 nM. In addition, the stoichiometry N in assay [5] turned out to be 2.

As to “GST-fused Eps8-ΔcapΔbund, double H1 and Villin-like motif mutant of Eps8(648–821) (from UniProt Q08509 648-821) (domain or fragment)”, the Kcap: barbed end elongation in assay [4] was 4 µM. Regarding Thymosin β4 (peptide), in assay [6], the Kapp with 10 µM H1–H2 is 6 µM, the Kapp with 15 µM Eps8(648–821) came to 9 µM, the Kapp with 15 µM H1–H2 turned out to be 11 µM and the Kapp with 30 µM Eps8(648–821) was 14 µM. Also, the pKd in assay [6] was 5.52.

For the origin of these results see publication PMC2879411.
